# Experimental data as given in patent US20120219503A1 (GENE TECHNO SCIENCE, published 2012).
# No end group written: not given here.
# T1: hOPN5-BSA (also: conjugated to BSA, coupling site not given here)
# T1 construct: RGD-containing synthetic peptide coupled to the carrier BSA and coated on ELISA or adhesion plates
# T1 peptide: CVDTYDGRGDSVVYGLRS
# Legend:
# hOPN5-BSA [1] = target: T1, hOPN5-BSA; assay: ELISA, hOPN5-BSA coated on the plate
# Experimental: (§1) Binding of Ch33E10 and Hu33E10-VH1/VL6 IgG1/κ antibodies to hOPN5-BSA was examined by ELISA. As an antigen, synthetic oligopeptide ([…] provided by Gene Techno Science) conjugated to bovine serum albumin (hOPN5-BSA) was used. In a typical experiment, an ELISA plate was coated with 100 μl/well of 1 μg/ml hOPN5-BSA in 0.2 M Na₂CO₃ buffer (pH 9.4) overnight at 4° C., washed with Wash Buffer, and blocked with 300 μl/well of Blocking Buffer for 1 hr at room temperature. After washing with Wash Buffer, samples appropriately diluted in ELISA Buffer were applied at 100 μl/well in the ELISA plate. After incubating the ELISA plate overnight at 4° C. and washing with Wash Buffer, bound antibodies were detected using 100 μl/well of 1/2,000-diluted HRP-conjugated goat anti-human γ chain polyclonal antibody (SouthernBiotech). After incubating for 1 hr at room temperature and washing with Wash Buffer, color development was performed by adding 100 μl/well of ABTS substrate and stopped with 100 μl/well of 2% oxalic acid. Absorbance was read at 405 nm.
# Binding of Hu33E10-VH5/VL6, Hu33E10-VH7/VL6 and Hu33E10-VH7.8/VL6 antibodies to hOPN5-BSA was compared to that of Ch33E10 by ELISA as described in Section 5. […] In repeated experiments, Hu33E10-VH7/VL6 and Hu33E10-VH7.8/VL6 behaved similarly to each other for binding to hOPN5-BSA.
# hOPN5-BSA [2] = target: T1, hOPN5-BSA; assay: ELISA, hOPN5-BSA coated on the plate (conclusion)
# hOPN5-BSA [3] = target: T1, hOPN5-BSA; assay: ELISA, hOPN5-BSA coated on the plate, two independent experiments
# Experimental: FIGS. 21A & 21B show ELISA analysis of the binding of Ch33E10 and Hu33E10-VH7/VLv2 IgG1/κ antibodies to hOPN5-BSA. Purified Ch33E10 and Hu33E10-VH7/VLv2 antibodies were tested at various concentrations, starting at 200 μg/ml (FIG. 21A) or 100 μg/ml (FIG. 21B) and serial 2-fold dilutions, for binding to hOPN5-BSA. The results of two independent experiments in duplicate (FIGS. 21A & 21B) are shown.
# as §1, with “After incubating for 1 hr at room temperature and washing with Wash Buffer, color development was performed by adding 100 μl/well of ABTS substrate and stopped with 100 μl/well of 2% oxalic acid.” left out, “nm. […]” for “nm.”
binder,measurement,setting,value
"Hu33E10-VH1/VL6 IgG1/κ antibody (antibody, V domains shown, Human IgG1/κ form; also called product of NS0-Hu33E10-2 #22) VH: EVQLVESGGGLVQPGGSLRLSCAASGFTFTDYYMIWVRQAPGKGLEWLGFIRNKANGYTTEYSASVKGRFTISRDNAKNSLYLQMNSLRAEDTAVYYCARGAYWGQGTMVTVSS VL: DIVMTQSPLSLPVTPGEPASISCRSSQSIVHSNGNTYLEWYLQKPGQSPQLLIYRVSNRFSGVPDRFSGSGSGTDFTLKISRVEAEDVGVYYCFQGSFVPWTFGQGTKVEIK",fold weaker binding than Ch33E10,hOPN5-BSA [1],~100 fold
"Hu33E10-VH7/VLv2 IgG1/κ antibody (antibody, V domains shown, also called SP2-1; SP-2) VH: EVQLVESGGGLVQPGGSLRLSCAASGFTFTDYYMIWVRQAPGKGLEWLGFIRNKANGYTTEYSASVKGRFTISRDNAKSILYLQMNSLRAEDTAVYYCARGAYWGQGTMVTVSS VL: DIVMTQSPDSLAVSLGERATISCRSSQSIVHSNGNTYLEWYLQKPGQPPKLLIYRVSNRFSGVPDRFSGSGSGTDFTLTISSLQAEDVAVYYCFQGSFVPWTFGQGTKVEIKR",fold difference of affinity from Ch33E10,hOPN5-BSA [2],≤ 3 fold
same,fold difference of binding affinity from Ch33E10,hOPN5-BSA [3],≤ 2 fold
"Hu33E10-VH7.8/VL6 IgG1/κ antibody (antibody, V domains shown, also called EJ3-1-1; product of NS0-Hu33E10-5 1E5 (EJ3-3 1E5)) VH: EVQLVESGGGLVQPGGSLRLSCAASGFTFTDYYMIWVRQAPGKGLEWLGFIRNKANGYTTEYSASVKGRFTISRDNSKSILYLQMNSLRAEDTAVYYCARGAYWGQGTMVTVSS VL: DIVMTQSPLSLPVTPGEPASISCRSSQSIVHSNGNTYLEWYLQKPGQSPQLLIYRVSNRFSGVPDRFSGSGSGTDFTLKISRVEAEDVGVYYCFQGSFVPWTFGQGTKVEIKR",fold lower affinity than Ch33E10,hOPN5-BSA [1],~3 fold
"Ch33E10 (chimeric 33E10 IgG1/κ antibody) (antibody, V domains shown, also called product of NS0-Ch33E10 2C11 (L4-2C11)) VH: EVKLVESGGGLVQPGGSLSLSCAASGFTFTDYYMIWVRQPPGKALEWLGFIRNKANGYTTEYSASVKGRFTISRDNSQSILYLQMNALRAEDSATYYCARGAYWGQGTLVTVSA VL: DVLMTQTPLSLPVSLGDQASISCRSSQSIVHSNGNTYLEWYLQKPGQSPKLLIYRVSNRFSGVPDRFSGSGSGTDFTLKISRVEAEDLGVYYCFQGSFVPWTFGGGTKLEIK",binding result,hOPN5-BSA [1],binds
